Residue numbers refer to the chain shown, from its start.
T1: human LSR with a V5/His tag fused to the C-terminal, on the LSR-expressing cell strain (human, UniProt Q86X29 1-649)
T1 construct: In panning Lot 1 a mammalian LSR-expressing cell strain was used whose construct is not described; also called human LSR-expressing chicken cell strain; not shown: V5/His tag of vector pcDNA3.1-V5/His-TOPO
T1 sequence: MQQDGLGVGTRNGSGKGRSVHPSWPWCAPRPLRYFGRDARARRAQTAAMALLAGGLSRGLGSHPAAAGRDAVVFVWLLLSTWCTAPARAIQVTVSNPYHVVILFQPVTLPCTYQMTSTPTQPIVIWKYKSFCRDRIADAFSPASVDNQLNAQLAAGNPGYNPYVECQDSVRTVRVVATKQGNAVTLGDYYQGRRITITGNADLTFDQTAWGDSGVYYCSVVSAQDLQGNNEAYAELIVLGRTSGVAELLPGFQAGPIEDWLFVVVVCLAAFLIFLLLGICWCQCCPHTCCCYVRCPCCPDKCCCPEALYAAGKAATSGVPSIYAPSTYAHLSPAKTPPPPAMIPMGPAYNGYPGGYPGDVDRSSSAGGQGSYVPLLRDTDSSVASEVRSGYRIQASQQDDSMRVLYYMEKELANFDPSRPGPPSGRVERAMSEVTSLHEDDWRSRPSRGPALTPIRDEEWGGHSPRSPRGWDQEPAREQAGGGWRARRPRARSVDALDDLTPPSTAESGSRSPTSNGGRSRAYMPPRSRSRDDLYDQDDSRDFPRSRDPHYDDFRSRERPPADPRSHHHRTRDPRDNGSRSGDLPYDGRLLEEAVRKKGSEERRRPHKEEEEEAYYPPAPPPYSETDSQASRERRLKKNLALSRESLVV

T2: human LSR (lipolysis stimulated lipoprotein receptor) (human, UniProt Q86X29 1-649)
T2 construct: Stood on human ovarian cancer cells (RMG-I, OVSAHO, JHOS2, OVISE; endogenous) or on SKOV3-L45 cells made to stably express LSR (construct not described); also called hLSR; human LSR protein (NP_991403.1)
T2 sequence: T1 sequence

B1: SEQ ID NO 6 (scFv phage antibody clone, anti-LSR antibody 1-43 sequence) (scFv)
scFv: AVTLDESGGGLQTPGGALSLVCEASGFDFSSHEMQWVRQAPGKGLEWVAGISGAGSSTRYGSAVQGRATISRDNGQSTVRLQLNNLRAEDTGTYYCARGSLIDAWGHGTEVIVSTGGGGSGGGGSGGGGSDVALTQPASVSANPGETVKITCSGGGSYYGSYYYSWHQQKSPGSAPVTVIYENNQRPSDIPSRFSGSKSGSTATLTITGVQAEDEAVYFCGSYDSSAGLFGAGTTLTV
notes: the phage coat protein fusion is not described; also called 1-43 scFv
B2: SEQ ID NO 3 (scFv phage antibody clone, anti-LSR antibody 26-2 sequence) (scFv)
scFv: AVTLDESGGGLQTPGGGLSLVCKGSGFTFSNYEMQWVRQAPGKGLEWVAGISGAGSTTRYGSAVQGRATISRDNGQSTVRLQLNNLRAEDTGTYYCARGSNIDGWGHGTEVIVSTGGGGSGGGGSGGGGSDVALTQPSSVSANPGETVKITCSGGGRYAESYYYSWFQQKSPGSAPVTVIYWNDKRPSNIPSRFSGSLSGSTNTLTITGVRAEDEAVYYCGAYEDSSAGFGAGTTLTV
notes: the phage coat protein fusion is not described; also called 26-2 scFv
B3: SEQ ID NO 4 (scFv phage antibody clone, anti-LSR antibody 27-6 sequence) (scFv)
scFv: AVTLDESGGGLQMPGGALSLVCRASGFDFSSYEMQWIRQAPGKGLEWVAGISGAGSGTRYGSAVKGRATISRDNGQSTVRLQLNNLRAEDTGIYFCARSSNIDAWGHGTEVTVSTGGGGSGGGGSGGGGSDVALTQPASVSANLGGTVKITCSGGGRYAESYYYGWYQQKSPGSTPVTVIYWNDKRPSNIPSRFSGSLSGSTNTLTITGVQVEDEAVYFCGSYEDSRSAFGAGTTLTV
notes: the phage coat protein fusion is not described; also called 27-6 scFv
B4: SEQ ID NO 5 (scFv phage antibody clone, anti-LSR antibody 1-25 sequence) (scFv)
scFv: AVTLDESGGGLQTPGGALSLVCKASGFDFSSYEMQWVRQAPGKGLEWVTGISGSGSSTRYGSAVKGRATISRDNGQSTVRLQLNNLRAEDTGTYYCARGSTIDAWGHGTEVTVSTGGGGSGGGGSGGGGSDVALTQPASVSANPGETVKITCSGGSSYAGSYYYGWYQQKSPGSAPVTVIYYNDQRPSDIPSRFSGSTSGSTATLTITGVQVEDEAVYICGTYEDSGGVFGAGTTLTV
notes: the phage coat protein fusion is not described; also called 1-25 scFv
B5: anti-LSR mouse/chicken chimeric monoclonal antibody #26-2 (antibody, V domains shown)
VH: AVTLDESGGGLQTPGGGLSLVCKGSGFTFSNYEMQWVRQAPGKGLEWVAGISGAGSTTRYGSAVQGRATISRDNGQSTVRLQLNNLRAEDTGTYYCARGSNIDGWGHGTEVIVST
VL: ALTQPSSVSANPGETVKITCSGGGRYAESYYYSWFQQKSPGSAPVTVIYWNDKRPSNIPSRFSGSLSGSTNTLTITGVRAEDEAVYYCGAYEDSSAGFGAGTTLTV
notes: also called No. 26-2; anti-LSR antibody 26-2
B6: anti-LSR mouse/chicken chimeric monoclonal antibody #9-7 (antibody, V domains shown)
VH: AVTLDESGGGLQTPGGALSLVCKASGFTFSDYQMNWVRQAPSKGLEWVAGINGRSSWTDYGAAVKGRATISRDNGQSTVRLQLNNLRAEDTATYYCARGSSIDAWGHGTEVIVST
VL: ALTQPASVSANPGETVKITCSGGGSYYGSYYYGWYQQKSPGSAPVTMIYNNNNRPSNIPSRFSGSLSGSTNTLTITGVQADEAVYYCGSIDSNIAGVFGAGTTLTV
notes: also called anti-LSR antibody 9-7
B7: anti-LSR mouse/chicken chimeric monoclonal antibody #1-25 (antibody, V domains shown)
VH: AVTLDESGGGLQTPGGALSLVCKASGFDFSSYEMQWVRQAPGKGLEWVTGISGSGSSTRYGSAVKGRATISRDNGQSTVRLQLNNLRAEDTGTYYCARGSTIDAWGHGTEVTVST
VL: ALTQPASVSANPGETVKITCSGGSSYAGSYYYGWYQQKSPGSAPVTVIYYNDQRPSDIPSRFSGSTSGSTATLTITGVQVEDEAVYICGTYEDSGGVFGAGTTLTV
notes: also called No. 1-25; anti-LSR antibody 1-25
B8: anti-LSR mouse/chicken chimeric monoclonal antibody #27-6 (antibody, V domains shown)
VH: B7 VH with T13M, K23R, V37I, T49A, S54A, S57G, T93I, Y95F, G99S, T101N
VL: ALTQPASVSANLGGTVKITCSGGGRYAESYYYGWYQQKSPGSTPVTVIYWNDKRPSNIPSRFSGSLSGSTNTLTITGVQVEDEAVYFCGSYEDSRSAFGAGTTLTV
notes: also called No. 27-6; anti-LSR antibody 27-6
B9: anti-LSR mouse/chicken chimeric monoclonal antibody #1-43 (antibody, V domains shown)
VH: B7 VH with K23E, Y32H, T49A, S54A, K65Q, T101L, T112I
VL: ALTQPASVSANPGETVKITCSGGGSYYGSYYYSWHQQKSPGSAPVTVIYENNQRPSDIPSRFSGSKSGSTATLTITGVQAEDEAVYFCGSYDSSAGLFGAGTTLTV
notes: also called No. 1-43; anti-LSR antibody 1-43

What follows are binders tested against T1, human LSR with a V5/His tag fused to … (assay: cell panning of the scFv phage library on the LSR-expressing cell strain, reactivity confirmed by FACS, positive phage clones selected).
Procedure: The scFv phage antibody library was added to a non-LSR-expressing cell strain to carry out absorption operation of nonspecific phages, and then was reacted with a LSR-expressing cell strain. In Lot 1, a mammalian cell strain was used and in Lot 2, cell panning was carried out using the chicken lymphoblast-like cell strain used for immunization. After washing with organic solvent, phages specifically binding to the LSR-expressing cell strain were recovered and then *Escherichia coli* were infected with it. Panning was carried out four times and then the reactivity of the library was confirmed by FACS analysis using the LSR-expressing cell strain. Phages from a library of which the reactivity had most increased were cloned, positive clones were selected, and then the sequences of six types of clones were determined (SEQ ID NOs: 1 to 6 and FIG. 9). For cell panning, a method described in "Giordano et al., Nat Med. 2001 November; 7(11): 1249-53" was followed.

Question: Does B1 bind?
Answer: binds

Question: Does B2 bind?
Answer: binds

Question: Does B3 bind?
Answer: binds

Question: Does B4 bind?
Answer: binds

These binders were tested against T2, human LSR (lipolysis stimulated …) (assay: FACS on RMG-I cells stained with various antibody concentrations, goat anti-mouse IgG-FITC, fit in GraphPad Prism).
Procedure: Then, using an anti-LSR antibody (#1-25 or #9-7), immunohistochemical staining for LSR was carried out according to the ABC method. In the ovary serous adenocarcinoma tissue and the endometrial cancer tissue, LSR was highly expressed at the tumor sites. Immunohistochemical Staining Using Normal Frozen Tissue Array FDA standard human tissue microarrays (T6234701-2, Biochain) were immunohistochemically stained using the anti-LSR antibody #1-25. […] Calculation of Binding Constant Various concentration of various anti-LSR antibodies were reacted with RMG-I cells and they were stained using goat anti-mouse IgG-FITC (Southern Biotech, Birmingham, Ala., USA) and analyzed by a FACSCanto® II cytometer (Becton Dickinson). With regard to the fluorescence intensity of FITC, a KD value was analyzed using GraphPad Prism® Software Version 6.0 for Windows (GraphPad Software Inc., San Diego, Calif., USA). When the binding ability of the made LSR antibodies was analyzed by FACS®, antibodies having a high binding ability were obtained. The following analysis was carried out using two kinds of clones having the highest binding ability in them (FIG. 37B). […] Cell Cycle Analysis Ovarian clear cell adenocarcinoma (RMG-I) was seeded into a 6-well plate at 15,000 cells/well and incubated in a CO_2 incubator at 37° C. overnight. The culture supernatant was discarded and 100 µg/ml anti-LSR antibody or mouse IgG2a diluted with RPMI 1640 medium (containing 1% FBS and 1% penicillin-streptomycin) was added at 2 mL/well for each. After 96 hours, cell cycle analysis was carried out using the Cycle Test Plus® DNA Reagent kits (BD Biosciences). Western Blot Ovarian clear cell adenocarcinoma (RMG-I) was seeded into a 6-well plate at 15,000 cells/well and incubated in a CO_2 incubator at 37° C. overnight. The culture supernatant was discarded and 100 µg/ml anti-LSR antibody or mouse IgG2a diluted with RPMI 1640 medium (containing 1% FBS and 1% penicillin-streptomycin) was added at 2 mL/well for each.

Question: B5 was tested. Which Kd did it give?
Answer: 4.04 nM

Question: Which Kd does the source give for B6 here?
Answer: 2.52 nM

Question: With B7 as the binder, how does the Kd read?
Answer: 2.03 nM

Question: For B8, which Kd is on record?
Answer: 4.29 nM

Question: For B9, which Kd is on record?
Answer: 24.6 nM

— patent US10174111 (NATIONAL UNIVERSITY CORPORATION KOCHI UNIVERSITY, dated 2019)
